Source: the RNAGym collection of RNA variant scans (doi:10.7554/elife.80360)

B1: HDV Ribozyme (parent)
chain: GGCCGGCAUGGUCCCAGCCUCCUCGCUGGCGCCGGCUGGGCAACAUUCCGAGGGGACCGUCCCCUCGGUAAUGGCGAAUGGGACCCA

Variants of: B1
Assay: self-cleavage, relative activity (ratio to wild type); higher = more cleavage; co-transcriptional

| Variant | self-cleavage |
| --- | --- |
| U27C G53C | 0.898 |
| U27C G53A | 0.696 |
| G29U C58A | 0.204 |
| G29U C85A | 0.0941 |
| G28A G73A | 0.112 |
| U27G U69G | 0.798 |
| U27G U69C | 0.969 |
| U27C G82U | 0.208 |
| G29A G40C | 0.0656 |
| G29A G40U | 0.0831 |
| G29A C61U | 0.274 |
| G28U A56C | 0 |
| U27C G80U | 0.21 |
| U27C G73A | 0.231 |
| U27C G73U | 0.0449 |
| G28U A45C | 0.148 |
| G29U C61A | 0.089 |
| C30A C36U | 0.148 |
| C30A A45C | 0.0678 |
| G28U U47C | 0.297 |
| G29A U65G | 0.166 |
| G28A G81A | 0.101 |
| G28A G34A | 0.175 |
| G28A G34C | 0.0536 |

| Variant | self-cleavage |
| --- | --- |
| G29A C30G | 0.0415 |
| C30A A77G | 0.224 |
| U27G A51C | 0.906 |
| U27G A51G | 1.03 |
| G29U C32G | 0.0455 |
| G28U G80U | 0.1 |
| G28C C63G | 0.101 |
| G28C C63A | 0.17 |
| G28U C84G | 0.13 |
| C30A A56U | 0.727 |
| G28A G52C | 0.0773 |
| G28A A45G | 0.0415 |
| G28U C49U | 0.0639 |
| G28U C49A | 0.0297 |
| U27G G81A | 0.597 |
| G28U C64U | 0.0733 |
| G28U C64G | 0.102 |
| G29C G55U | 0.0396 |
| G29C G55A | 0.166 |
| G29A G59A | 0.179 |
| G29A G59C | 0.123 |
| G28A U47C | 0.0739 |
| G28C C48A | 0.166 |
| G29A U60A | 0.101 |

| Variant | self-cleavage |
| --- | --- |
| G29A C32G | 0.0219 |
| G29A C33G | 0.0346 |
| G29A C33U | 0.111 |
| G28U C61U | 0.193 |
| U27G G67U | 0.764 |
| G28A U69C | 0.0361 |
| G28A U69A | 0.166 |
| U27C U72C | 0.166 |
| G28U U46A | 0.111 |
| G28C C49A | 0.166 |
| G28C C49G | 0.119 |
| G29A G50C | 0.121 |
| G28C U79G | 0.246 |
| G28A G38C | 0.0978 |
| G29U U69A | 0.0875 |
| G29U G81U | 0.0554 |
| G28A G55U | 0.056 |
| G28U G31U | 0.0923 |
| C30A A78C | 0.117 |
| C30A A78U | 0.237 |
| G29C C49U | 0.128 |
| G29C C49A | 0.222 |
| G29A A77C | 0.111 |
| G28C G73A | 0 |

| Variant | self-cleavage |
| --- | --- |
| G29A G55C | 0.0563 |
| G28C A42C | 0.0437 |
| U27C U60A | 1.09 |
| G29U U46A | 0.0665 |
| G29U U46G | 0.0386 |
| G29U G34C | 0.146 |
| U27G G31A | 0.539 |
| G29A G34U | 0.0601 |
| G28C G76A | 0.106 |
| G28A U65C | 0.0415 |
| C30A A83U | 0.0923 |
| U27C G52A | 0.884 |
| G29A A43C | 0.0978 |
| G29A U79C | 0.113 |
| G29A U79A | 0.166 |
| G29A A51C | 0.121 |
| G29C A78G | 0 |
| G28C G29A | 0.0692 |
| U27G C86G | 0.745 |
| G29C G40C | 0.18 |
| U27G A83C | 0.831 |
| U27C G54A | 0.598 |
| U27C G54U | 0.845 |
| U27G A56C | 0.712 |

| Variant | self-cleavage |
| --- | --- |
| G29A U37C | 0.17 |
| C30A A43U | 0.0692 |
| G28U A77U | 0.0707 |
| G28U A78G | 0.158 |
| G28U A71C | 0 |
| G28A A51U | 0.138 |
| G29A G38C | 0.0292 |
| G29A G38A | 0.0623 |
| G29A A71C | 0.089 |
| G29U A83U | 0.102 |
| G28A G68A | 0.124 |
| G28A G68C | 0.0692 |
| G28A C48U | 0.0997 |
| G29U A56U | 0.109 |
| G29U C30U | 0.0779 |
| C30A C62A | 0.578 |
| G29C G35U | 0.0554 |
| G28C U65C | 0.101 |
| G28C G55C | 0.0692 |
| G28U G81C | 0.0282 |
| G28U G81A | 0.158 |
| G29C C44U | 0 |
| G28U C66U | 0.19 |
| G29A C36U | 0.0264 |

| Variant | self-cleavage |
| --- | --- |
| G28C C41G | 0 |
| G28C C41U | 0.0437 |
| G29A G35A | 0.0923 |
| G29C G31U | 0.0755 |
| G29C C66G | 0 |
| G29C C66A | 0.0475 |
| G28A G35A | 0.0608 |
| G28A G35C | 0.153 |
| G29A C75A | 0.0852 |
| G28U A51G | 0.117 |
| G28U A51C | 0.222 |
| G28A A70U | 0.203 |
| U27G C36G | 0.0665 |
| G28U G82A | 0.191 |
| G28U G82C | 0.0272 |
| G28A G82A | 0.0604 |
| G28C C58U | 0.0369 |
| G29U U79A | 0.0386 |
| G28A G74A | 0.131 |
| G28U G55C | 0.138 |
| G29U A43U | 0.095 |
| G29U A43C | 0.136 |
| G29A G82C | 0.0627 |
| G28A G67C | 0.0519 |

| Variant | self-cleavage |
| --- | --- |
| G29U G54U | 0.0449 |
| G29C G38C | 0.0489 |
| G29U G59A | 0.102 |
| G29C G68A | 0.163 |
| U27G A77U | 0.346 |
| G28U G67U | 0.137 |
| U27G G54C | 0.914 |
| U27G A70C | 0.554 |
| U27G A87C | 0.869 |
| G29C G82A | 0.117 |
| G28C G80U | 0.123 |
| G28C G80C | 0.166 |
| G28C G40A | 0.148 |
| G28C G40U | 0.032 |
| G29U U60A | 0.248 |
| C30A C41G | 0.0875 |
| G28A A83G | 0.0946 |
| G28A A83C | 0.0875 |
| G28A A83U | 0.0308 |
| G29U A51C | 0.0898 |
| G28U U72G | 0.0554 |
| G28U U72C | 0.0898 |
| G29C C61A | 0.0791 |
